For assay [1], the target named is anti-VEGF/ANG2 antibody (IgG1 subclass with mutations P329G/L234A/L235A/I253A/H310A/H435A) [IgG part: P01857]. The experiment in a line: sandwich ELISA in serum; capture M1.3.17, tracer M1.7.24; anti-VEGF/ANG2 antibody 625 ng/mL. (In general: ELISA stands for enzyme-linked immunosorbent assay.)
Assay [2] has the same target. The assay is described as follows: sandwich ELISA in serum; capture M1.3.17, tracer M1.7.24; anti-VEGF/ANG2 antibody 1250 ng/mL.
For assay [3] the target is unchanged. The experiment in a line: sandwich ELISA in serum; capture M1.3.17, tracer M1.7.24; anti-VEGF/ANG2 antibody 312.5 ng/mL.
Assay [4] has the same target. The assay is described as follows: sandwich ELISA in serum; capture M1.3.17, tracer M1.7.24; anti-VEGF/ANG2 antibody 156.25 ng/mL.
For assay [5] the target is unchanged. The experiment in a line: bridging ELISA; biotinylated and digoxigenylated anti-VEGF/ANG2 antibody bridged by M1.3.17 at 125 ng/mL.
Assay [6] has the same target. The assay is described as follows: bridging ELISA; biotinylated and digoxigenylated anti-VEGF/ANG2 antibody bridged by M1.3.17 at 250 ng/mL.
Assay [7] has the same target. The experiment in a line: bridging ELISA; biotinylated and digoxigenylated anti-VEGF/ANG2 antibody bridged by M1.3.17 at 62.5 ng/mL.
The target is the same in assay [8]. The experiment in a line: bridging ELISA; biotinylated and digoxigenylated anti-VEGF/ANG2 antibody bridged by M1.3.17 at 15.625 ng/mL.
The target is the same in assay [9]. The experiment in a line: bridging ELISA; biotinylated and digoxigenylated anti-VEGF/ANG2 antibody bridged by M1.3.17 at 7.8125 ng/mL.
Assay [10] addresses anti-VEGF/ANG2 antibody (IgG1 subclass with mutations P329G/L234A/L235A/I253A/H310A/H435A) (human) [IgG part: P01857]. The experiment in a line: sandwich ELISA in serum; M1.3.17-Bi capture on SA plate; tracer anti-human kappa M1.7.10-Dig; analyte 10 ng/mL.
For assay [11] the target is unchanged. The assay is described as follows: sandwich ELISA in serum; M1.3.17-Bi capture on SA plate; tracer anti-human kappa M1.7.10-Dig; analyte 2.5 ng/mL.
For assay [12], the target named is cytokine (IL-2) antibody conjugate with the mutations P329G, L234A, L235A, I253A, H310A, and H435A. The assay is described as follows: sandwich ELISA in serum; capture anti-IL2 antibody, tracer M1.7.24; conjugate 156.25 ng/mL.
Assay [13] shares this target. The experiment in a line: sandwich ELISA in serum; capture anti-IL2 antibody, tracer M1.7.24; conjugate 78.125 ng/mL.
The target in assay [14] is anti-VEGF/ANG2 antibody (IgG1 subclass with mutations P329G/L234A/L235A/I253A/H310A/H435A) [IgG part: P01857]. The assay is described as follows: sandwich ELISA in serum; capture M1.7.10-Bi, tracer M1.7.24-Dig; anti-VEGF/ANG2 antibody 5 ng/mL.
For assay [15] the target is unchanged. The assay is described as follows: sandwich ELISA in serum; capture M1.7.10-Bi, tracer M1.7.24-Dig; anti-VEGF/ANG2 antibody 10 ng/mL.
Assay [16] has the same target. The experiment in a line: sandwich ELISA in serum; capture M1.7.10-Bi, tracer M1.7.24-Dig; anti-VEGF/ANG2 antibody 2.5 ng/mL.
For assay [17] the target is unchanged. The experiment in a line: sandwich ELISA in serum; capture M1.7.10-Bi, tracer M1.7.24-Dig; anti-VEGF/ANG2 antibody 1.25 ng/mL.
Assay [18] has the same target. The experiment in a line: sandwich ELISA in serum; capture M1.7.10-Bi, tracer M1.7.24-Dig; anti-VEGF/ANG2 antibody 0.625 ng/mL.
The target is the same in assay [19]. The assay is described as follows: sandwich ELISA in serum; capture M1.7.10-Bi, tracer M1.7.24-Dig; anti-VEGF/ANG2 antibody 0.15625 ng/mL.
For assay [20] the target is unchanged. The assay is described as follows: sandwich ELISA in serum; capture M1.7.10-Bi, tracer M1.7.24-Dig; anti-VEGF/ANG2 antibody 0.01953125 ng/mL.

B1: anti-variant (human) Fc-region antibody M1.3.17 (antibody, V domains shown)
VH: EVKLLESGGGLVQPGGSLKLSCAASGIDFRRYWMNWVRQAPGKGLEWIGEIDPDSSTINYTPSLKDKFIISRDNAKNTMYLQMRKVRSEDTALYYCARPYDYGAWFAYWGQGTLVTVSA
VL: QAVVTQESALTTSPGETVTLTCRSTTGAVTTSNYANWVQEKPDHLFTGLIGGTNKRAPGVPARFSGSLIGDKAALTITGAQTEDEAIYFCALWYSDHWVFGGGTKLTVL
With B1, the signal [OD405 nm] amounted to 1.13 OD405 nm in assay [1]; 1.88 OD405 nm in [2]; 0.658 OD405 nm in [3]; 0.418 OD405 nm in assay [4]; 0.085 OD405 nm in assay [5]; 0.15 OD405 nm in [6]. Moreover, the signal [OD405 nm] in assay [7] was 0.063 OD405 nm; in assay [8], 0.05 OD405 nm; in assay [9], 0.047 OD405 nm; in [10], 2.23 OD405 nm; in [11] it was 0.987 OD405 nm.

B2: anti-variant (human) Fc-region antibody M1.7.24 (antibody, V domains shown)
VH: EVKLLESGGGLVQPGGSLKLSCAASGFDFSRYWMNWVRQAPGKGLEWIGEITPDSSTINYTPSLKDKFIISRDNAKNTLYLQMIKVRSEDTALYYCVRPYDYGAWFASWGQGTLVTVSA
VL: QAVVTQESALTTSPGETVTLTCRSSTGAVTTSNYANWVQEKPDHLFTGLIGGTNKRAPGVPARFSGSLIGDKAALTITGAQTEDEAIYFCALWYSNHWVFGGGTKLTVL
For the molecule B2, the signal [OD405 nm] in assay [12] was determined as 0.253 OD405 nm; in [13], 0.152 OD405 nm; in assay [14], 2.17 OD405 nm; in assay [15] it was 2.76 OD405 nm; in assay [16] it was 1.44 OD405 nm; in [17], 0.847 OD405 nm. The signal [OD405 nm] was determined as 0.468 OD405 nm in [18], 0.147 OD405 nm in assay [19] and 0.057 OD405 nm in assay [20].

Values taken from patent publication US20180346602A1.
